Values of other authors in US20090215646A1, “SYSTEM AND METHOD OF ANALYTE DETECTION USING DIFFERENTIAL RECEPTORS” (The Board of Regents of the University of Texas Sy, priority 2005, published 2009).

B1: Ovalbumin: glycoprotein analyte obtained commercially (protein, UniProt P01012 2-386, looked up)
Ovalbumin: GSIGAASMEFCFDVFKELKVHHANENIFYCPIAIMSALAMVYLGAKDSTRTQINKVVRFDKLPGFGDSIEAQCGTSVNVHSSLRDILNQITKPNDVYSFSLASRLYAEERYPILPEYLQCVKELYRGGLEPINFQTAADQARELINSWVESQTNGIIRNVLQPSSVDSQTAMVLVNAIVFKGLWEKAFKDEDTQAMPFRVTEQESKPVQMMYQIGLFRVASMASEKMKILELPFASGTMSMLVLLPDEVSGLEQLESIINFEKLTEWTSSNVMEERKIKVYLPRMKMEEKYNLTSVLMAMGITDVFSSSANLSGISSAESLKISQAVHAAHAEINEAGREVVGSAEAGVDAASVSEEFRADHPFLFCIKHIATNAVLFFGRCVSP

Settings: isoelectric point

Row | Molecule | pI
1 | Fetuin: glycoprotein analyte obtained commercially | 4.5-4.9
2 | Lysozyme: protein analyte obtained commercially | 9.6-11
3 | B1 | 4.6
